Test results published in patent US11491212.

Tests used:
[1] = target: Factor X (FX), P00742
[2] = target: Factor X, P00742
Factor X, P00742, sequence (P00742 whole entry, looked up): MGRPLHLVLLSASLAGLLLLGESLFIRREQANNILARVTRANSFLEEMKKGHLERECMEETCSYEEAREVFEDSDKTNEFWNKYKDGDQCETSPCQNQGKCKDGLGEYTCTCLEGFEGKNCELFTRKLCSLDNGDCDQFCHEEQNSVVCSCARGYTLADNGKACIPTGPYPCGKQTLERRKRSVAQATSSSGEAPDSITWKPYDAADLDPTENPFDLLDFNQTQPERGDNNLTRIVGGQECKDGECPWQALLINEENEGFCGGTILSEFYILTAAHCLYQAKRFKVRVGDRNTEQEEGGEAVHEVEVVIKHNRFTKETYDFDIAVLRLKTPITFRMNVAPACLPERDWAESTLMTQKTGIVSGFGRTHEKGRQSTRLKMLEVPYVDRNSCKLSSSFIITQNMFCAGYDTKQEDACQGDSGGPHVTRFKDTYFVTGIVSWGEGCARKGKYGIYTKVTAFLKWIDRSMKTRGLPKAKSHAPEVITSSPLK

Factor X (FX), P00742, sequence (P00742 whole entry, looked up): as above

Protein | kcat (s^-1), activation of FX by FIXa in the Xase complex [1] | % of WT kcat/KM [2] | kcat/KM [2]
FIXa Y155F/K247N/N249S/T343R/E410N (protein) chain 1: not shown chain 2: not shown | 7.9 s⁻¹ | 599% | 2.8e+08 M⁻¹ s⁻¹
FIXa Y155F/K247N/N249S/R338E/T343R (protein) chain 1: not shown chain 2: not shown | – | 1579% | 7.3e+08 M⁻¹ s⁻¹
FIXa K247N/N249S/R318Y/R338E/T343R (protein) chain 1: not shown chain 2: not shown | 8 s⁻¹ | 840% | 3.9e+08 M⁻¹ s⁻¹
FIXa Y155F/T343R/R403E/E410N (protein) chain 1: not shown chain 2: not shown | 6.6 s⁻¹ | 321% | 1.5e+08 M⁻¹ s⁻¹
FIXa Y155F/R318Y/T343R/R403E (protein) chain 1: not shown chain 2: not shown | 5 s⁻¹ | 154% | 7.1e+07 M⁻¹ s⁻¹
FIXa Y155F/R318Y/R338E/T343R (protein) chain 1: not shown chain 2: not shown | 7.9 s⁻¹ | 771% | 3.6e+08 M⁻¹ s⁻¹
FIXa K247N/N249S/T343R/R403E/E410N (protein) chain 1: not shown chain 2: not shown | 8 s⁻¹ | 285% | 1.3e+08 M⁻¹ s⁻¹
FIXa Y155F/R338E/T343R/E410N (protein) chain 1: not shown chain 2: not shown | 6 s⁻¹ | 761% | 3.5e+08 M⁻¹ s⁻¹
FIXa Y155F/R318Y/T343R/E410N (protein) chain 1: not shown chain 2: not shown | 5 s⁻¹ | 326% | 1.5e+08 M⁻¹ s⁻¹
FIXa Y155F/K247N/N249S/R318Y/R338E/T343R (protein) chain 1: not shown chain 2: not shown | 8.5 s⁻¹ | 772% | 3.6e+08 M⁻¹ s⁻¹
FIXa Y155F/K247N/N249S/R403E/E410N (protein) chain 1: not shown chain 2: not shown | 2.7 s⁻¹ | 53% | 2.4e+07 M⁻¹ s⁻¹
FIXa R318Y/R338E/T343R (protein) chain 1: not shown chain 2: not shown | 4.5 s⁻¹ | 324% | 1.5e+08 M⁻¹ s⁻¹
FIXa Y155F/K247N/N249S/R318Y/R338E/T343R/E410N (protein) chain 1: not shown chain 2: not shown | – | 1091% | 5e+08 M⁻¹ s⁻¹
